Consider 15 molecules from patent publication US20220348674A1 (APOLLOMICS, published 2022).

Sequences and labels used below:
B1: 3B5, humanized anti-CD40 mAb, IgG1 isotype (antibody, V domains shown)
VH: EVQLVESGGGLIQPGGSLRLSCAVSGFSLSTYAVSWVRQAPGKGLEWVGIIDSGGGTAYASWVKGRFTISRDNSKNTLYLQMNSLRAEDTAVYYCARGVTFFGLWGQGTLVTVSS
VL: DIVMTQSPSTLSASVGDRVTITCQASQSISNYLSWYQQKPGKAPKLLIYRASDLASGVPSRFSGSGSGTEFTLTISSLQPDDFATYYCQAYYYSGGGSYDYAFGGGTKVEIK
notes: also called HZD_3B5; 3B5 antibody
B2: 194 rabbit-human chimeric anti-CD40 antibody (antibody, V domains shown)
VH: QSVEESGGRLVTPGTPLTLTCTVSGFSLSSYAMSWVRQAPGKGLEYIGVMNTGGSAHYATWAKGRFTISKTSTTVDLKITSPTTADTATYFCARGYIGSPNLWGPGTLVTVSS
VL: AVLTQTPSPVSAAVGGTVSISCQSSKSVYYNNYLSWFQQKPGQPPKQLIYLASTLASGVPSRFKGSGSGTEFTLTISDVQCADAATYYCAGGYTDSDDAFGGGTEVVVK
notes: tested as cell culture supernatant
B3: 3E12 rabbit-human chimeric anti-CD40 antibody (antibody, V domains shown)
VH: QSVKESEGGLFKPTDTLTLTCTVSGFSFSNYRMIWVRQAPGNGLEWIGVIDRNDNTYYATWAKSRSTITRNTNLNTVTLKMTSLTAADTATYFCARDTDYTTGGIWGPGTLVTVSS
VL: DIVMTQTPASVSAAVGGTVTIKCQASQNIGDNLAWHQQKPGQPPKLLIYGASTLASGVPSRFKGSGSRTEYTLTISDLECADAATYYCQSNYYSTSSSYYNSFGGGTEVVVK
notes: as for B2
B4: 4B7 rabbit-human chimeric anti-CD40 antibody (antibody, V domains shown)
VH: QSVKESEGGLFKPTDTLTLTCTVSGFTLSNYRVIWVRQAPGNGLEWIGGIDRSAVAYYASWAKSRSTITRNTNLNTVTLKMTSLTAADTATYFCARDTDYTSGGIWGPGTLVTVSS
VL: DIVMTQTPSSVSAAVGGTVTIKCQASQNIGGNLAWYQQKPGQPPKLLIYGSSTLESGVPSRFSGSGSGTEYTLTISDLQCADAATYYCQSNYWSRSSSYVNSFGGGTEVVVK
notes: as for B2
B5: 5D10 rabbit-human chimeric anti-CD40 antibody (antibody, V domains shown)
VH: QSVEESGGRLVTPGTPLTLTCTVSGFSFYDHTMIWVRQAPGKGLEYIGFINIGGRAYYASWAKGRFTISRTSTTVDLEMTSLTTEDTATYFCARGDTHGYSYPEIWGPGTLVTVSS
VL: DIVMTQTPASVEAGVGGTVTIKCQASQTIYSYLSWYQQKPGQPPKLLIYRASTLASGVPSRFRGSGSGTEFTLTISDLECADAAAYYCQNYYDSTSSNAFGKGTEVVVK
notes: as for B2
B6: 196 rabbit-human chimeric anti-CD40 antibody (antibody, V domains shown)
VH: QSVEESGGRLVTPGTPLTLTCTVSGFSLSAYAIHWVRQAPGKGLEYIGIIDAGGNIVYATWALGRFTISKTSTTVDLKITSPTTEDTATYFCGRGLSSYSNSAMDLWGPGTLVTVSS
VL: DVVMTQTPASVSEPVGGTVTMKCQASQNIYTYLAWYQQKPGRPPKLLIYQASTLASGVSSRFSGSGSGTEFTLTISDLECADAATYYCQSTAGNAYNAFGGGTEVVVK
notes: as for B2
B7: 197 rabbit-human chimeric anti-CD40 antibody (antibody, V domains shown)
VH: QEQLKESGGGLVTPGTALTLTCTASGSDISSYAMNWVRQAPGKGLEYIGVITSSGTIYYANWATGRFTISKASSTTVDLKTTRLTTEDTATYFCARGITGAVTTGLSLWGPGTLVTVSS
VL: DVVMTQTPPSVSEPVGGTVTIKCQASQNIYNNLAWYQQTPGQPPKLLGYAASNLASGVSSRFSGSGYGTEFTLTISDLECADAATYYCLGGYYGNNVGNTFGGGTEVVVK
notes: as for B2
B8: 192 rabbit-human chimeric anti-CD40 antibody (antibody, V domains shown)
VH: QSVEESGGRLVTPGTPLTLTCTVSGFSLSSYAMNWVRQAPGKGLEYTGMIATGGKTFYAGWAEGRFTISKTSTTVDLHIASLTTEDTATYYCARGYVGDIYFGFWGPGTLVTVSS
VL: AVLTQTPSPVSAGVGGTVTISCQSSKSVYYNTHLSWFQQKPGQPPKLLIYRASTLASGVPSRFKGSGSGTQFTLTISDVQCDDAATYYCAGGYANDVDNGFGGGTEVVVK
notes: as for B2
B9: 195 rabbit-human chimeric anti-CD40 antibody (antibody, V domains shown)
VH: QSVEESGGRLVTPGTPLTLTCTVSGFSLSSYAMNWVRQAPGKGLEYIGMIATGGKTFYAGWAEGRFTISKTSTTVDLHIASLTTEDTATYYCARGYVGDIYFGFWGPGTLVTVSS
VL: AVLTQTPSPVSAGVGGTVTISCQSSKSVYYNTHLPWFQQKPGQPPKLLIYRASTLASGVPSRFKGSGSGTQFTLTISDVQCDDAATYYCAGGYANDVDNGFGGGTEVVVK
notes: as for B2
B10: 2E3 rabbit-human chimeric anti-CD40 antibody (antibody, V domains shown)
VH: QSVEESGGRLVTPGTPLTLTCTVSGFSLSTYAMSWVRQAPGKGLEWIGIIDGSSFTVYANWAKGRFTISKTSTTVDLKMTSLTASDTATYFCARGATFFGLWGPGTLVTVSS
VL: DVVMTQTPASVSAAVGGTVTIKCQASQSISGVLAWYQQKPGQPPKLLIYRAADLASGVPSRFKGSGSGTEFTLTINDLECDDAATYYCQSYYYSNSGSYSYAFGGGTEVVVK
notes: as for B2
B11: 5F9 rabbit-human chimeric anti-CD40 antibody (antibody, V domains shown)
VH: QSVEESGGRLVTPGTPLTLTCTASGFSLIGYVMGWFRQAPGKGLEYIGWISFGGDPYYASWVKGRFTISKTSTTVDLKMTSLTTEDTATYFCARSTYGDIWGPGTLVTVSS
VL: DIVMTQTPASVEAAVGGTVTIKCQASQSISSRLAWYQLKPGQPPKLLIYSASTLASGVPSRFKGSGSGTEFTLTISDLECADAATYYCQNHGYATSESYTNTFGGGTEVVVK
notes: tested as cell culture supernatant in the ELISA
B12: 2E11 rabbit-human chimeric anti-CD40 antibody (antibody, V domains shown)
VH: QSLEESGGRLVTPGTPLTLTCTVSGIDLSRYAMGWVRQAPGKGLEFIGIITSNSGDTYYATWAKGRFTISKTSTTVDLKITSPTTEDTATYFCVRGYIGAPNLWGPGTLVTVSS
VL: AVLTQTPSPVSAAVGGTVSISCQSSKTVYYNNYLSWFQQKPGQPPKELIYYASTLSSGVPSRFKGSGSGTQFTLTISDVQCDDAATYYCAGGYNSDSDNTFGGGTEVVVK
notes: as for B11
B13: 3B5 rabbit-human chimeric anti-CD40 antibody (antibody, V domains shown)
VH: QSVEESGGRLITPGTPLTLTCTVSGFSLSTYAVSWVRQAPGKGLEWIGIIDSGGGTAYASWVKGRFTISKTSTTVDLKITSPTTEDTATYFCARGVTFFGLWGPGTLVTVSS
VL: DIVMTQTPASVEAAVGGTVTIKCQASQSISNYLSWYQQKPGQPPKLLIYRASDLASGVPSRFKGSGSGTEFTLTISDLECADAATYYCQAYYYSGGGSYDYAFGGGTEVVVK
notes: as for B2
B14: 4A7 rabbit-human chimeric anti-CD40 antibody (antibody, V domains shown)
VH: QSVEESGGRLVTPGTPLTLTCTVSGFSLSTYAMSWVRQAPGKGLEWIGIIDGGGFAVYANWAKGRFTISKASTTVDLKLPSPTTEDTATYFCARGVTFFNLWGPGTLVTVSS
VL: DIVMTQTPASVEAAVGDTVTIKCQASQSISSALAWYQQKPGQPPKLLIYRASTLESGVPSRFKGSGSGTEFTLTISDLECADAATYYCQSYYYSSGGSYDYAFGGGTEVVVK
notes: as for B2
B15: 198 rabbit-human chimeric anti-CD40 antibody (antibody, V domains shown)
VH: QSVKESEGGLFKPTDTLTLTCTVSGFSLGSYTMAWVRQAPGNGLEYIGTIDSSGSADYASWAQSRSTITRNTNLNTVTLKMTSLTAADTATYFCARPTNYEYTWALNIWGPGTLVTVSS
VL: DVVMTQTPASVSEPVGGTVTIKCQASQTIYSYLAWYQQKPGQPPKLLIYGASKLASGVPSRFSGSRSGTEFTLTISDLECADAATYYCQCTGYDSAYVYNDFGGGTEVVVK
notes: as for B2

T1 sequence (P25942 21-193 limits assumed): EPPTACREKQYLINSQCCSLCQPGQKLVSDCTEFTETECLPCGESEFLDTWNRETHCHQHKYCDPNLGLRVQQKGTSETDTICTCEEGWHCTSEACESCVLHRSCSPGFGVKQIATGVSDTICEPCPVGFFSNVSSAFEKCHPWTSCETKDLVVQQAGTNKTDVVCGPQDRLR

The target of the first experiment is CD40 on HEKBlue CD40L reporter cells (UniProt P25942 21-277, limits assumed). Nature of the experiment: cell-based or functional assay.
CD40 on HEKBlue CD40L reporter cells, sequence (P25942 21-277 limits assumed): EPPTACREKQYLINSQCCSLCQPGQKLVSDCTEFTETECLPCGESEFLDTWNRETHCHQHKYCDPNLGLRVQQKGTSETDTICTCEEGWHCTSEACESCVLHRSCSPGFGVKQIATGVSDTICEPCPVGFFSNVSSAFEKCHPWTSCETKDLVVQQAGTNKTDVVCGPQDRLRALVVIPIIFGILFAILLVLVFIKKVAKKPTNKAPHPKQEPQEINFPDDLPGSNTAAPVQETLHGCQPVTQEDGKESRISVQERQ
With B1, the “IC50 (read off the curve)” value was roughly 0.06 µg/mL.

A further experiment addresses T1, purified recombinant human CD40 protein (human, UniProt P25942 21-193).
T1 construct: also called recombinant CD40
The experiment is described as follows: Octet (BLI), recombinant CD40. For orientation: Biolayer interferometry detects binding as a change in optical thickness at a sensor tip.
In general, Kd refers to the equilibrium constant for the complex coming apart. As a reminder, the koff is the first-order rate constant of dissociation. As a reminder, the kon is the second-order rate constant of association. B1: the Kd is less than 1 pM, the koff is less than 1e-07 s⁻¹ and the kon was 1.06e+06 M⁻¹ s⁻¹.

For the next experiment, the target named is T1, purified recombinant human CD40 protein. Nature of the experiment: ELISA on coated recombinant human CD40; chimeric antibody supernatant. Here is the method: ELISA plate was coated with purified recombinant CD40 protein in coating buffer at lug/ml overnight. After washed for 3 times, the plate was blocked with 1% BSA, and then cell culture supernatants containing rabbit-human chimeric CD40 antibodies were added to the plate. For detection of the antibody binding to CD40 protein, goat anti-human Fc polyclonal antibody conjugated to alkaline phosphatase was used.
A general note: An ELISA detects its analyte on a solid surface through an enzyme-linked reagent.
On to B2, for which the OD405 stood at 1.69 OD405.

Consider B3, for which the OD405 was 1.39 OD405.

On to B4, for which the OD405 amounted to 1.72 OD405.

As to B5, the OD405 was determined as 0.98 OD405.

Take B6: the OD405 is 1.92 OD405.

On to B7, for which the OD405 was 2.01 OD405.

As to B8, the OD405 turned out to be 2 OD405.

As for B9, the OD405 worked out at 1.84 OD405.

Turning to B10, the OD405 was 1.62 OD405.

With B11, the OD405 was 1.83 OD405.

For the molecule B12, the OD405 was found to be 1.79 OD405.

On to B13, for which the OD405 came out at 1.48 OD405.

For B14, the OD405 stood at 1.65 OD405.

On to B15, for which the OD405 was found to be 1.8 OD405.

In a further experiment the target is T2, cell surface human CD40 on HEK-CD40 cells (human, UniProt P25942 21-277).
T2 construct: whole, on cells; also called cell surface CD40
T2 sequence (P25942 21-277): as the sequence (P25942 21-277 limits assumed) above
The experiment is described as follows: flow cytometry, titration on HEK-CD40 cells, CD40 MFI, anti-human IgG secondary antibody. Here is the method: HEK-CD40 were collected and plated at 10⁵ cells per well in 96-well round bottom plate in FACS buffer. Serial dilutions of antibodies (Control IgG1, CP870,893, APX005m and 3B5) in 100 ul were incubated with the HEK-CD40 cells for 60 min at 4° C. Cells were washed 3 times with 200 ul FACS buffer. Cell-bound antibodies were detected using an APC-conjugated secondary antibody specific to human IgG heavy and light chain. After incubating 30 min with secondary antibody, HEK-CD40 cells were washed 3 times with 200 ul FACS buffer and resuspended in 200 ul FACS with 1 ug/ml DAPI. Flow cytometric analyses were performed using Attune N×T flow cytometer (ThermoFisher Scientific, Waltham, Mass.). After gating on FCS-SSC parameters to exclude debris and selectively gating DAPI negative cells on DAPI-SSC parameters to exclude dead cells, the geometric mean fluorescence intensity (MFI) of antibodies was determined using FlowJo v10 (BD Bioscience, San Jose, Calif.). Dose-response curves were generated and EC50s calculated using GraphPad Prism 8 (GraphPad Software, San Diego, Calif.).
For orientation: Flow cytometry measures light scatter and fluorescence of single cells or particles in a stream.
By EC50 is commonly meant the concentration giving half of the maximal effect. A lower EC50 goes with an effect from little substance. Regarding B1, the response was half-maximal at 0.69 µg/mL (EC50).
